In patent US20180362616A1, “VARIANTS OF AMYLOID beta-PROTEIN PRECURSOR INHIBITOR DOMAIN” (THE NATIONAL INSTITUTE FOR BIOTECHNOLOGY IN THE NEGEV LTD., priority 2015, published 2018):
“Also recorded” adds a separate entry of the source. Where two headings read alike, the source gives them in different places.

Key:
[1] = system: AGS gastric cancer cells; test: Matrigel ThinCerts invasion assay; assay type: cell-based
Experimental: The effects of […] (SEQ ID NO: 13) on the invasive behavior of AGS gastric cancer cells was examined. For invasion assays AGS cells were plated in the top chamber of a Matrigel coated […] (Greiner Bio-One, Germany), with an 8 μm pored membrane in 160 μl serum-free Ham's F-12 medium, in triplicate. 1 uM-10 uM of APPI (SEQ ID NO: 13) or a vehicle (50 mM Tris-HCl, 100 mM NaCl, Ph 7.3) in 40 μl were added to each insert. Next, the inserts were placed into the bottom chamber wells of a 24-well plate containing Ham's F-12 with 10% FBS as a chemo-attractant. After 48 hours of incubation, cells remaining on the inserts' top layers were removed by cotton swab scrubbing; Cells on the lower surface of the membrane were fixed in 100%/methanol and stained with Romanowski stain solutions. The cell numbers in 10 random fields (×20) were counted for each chamber and the average value was calculated.

[2] = target: T1, hK6 (Homo sapiens, UniProt Q92876); test: Surface plasmon resonance, APPI on nickel chip, hK6 analyte; assay type: binding; settings: SPR
Experimental: APPIs were immobilized to a SPR nickel chip via the proteins His tag, and hK6 protein served as the analyte. The experiment was conducted at 25° C. APPI concentrations were 0.6125 nM, 1.25 nM, 2.5 nM, 5 nM, and 10 nM.
To this end, APPIs were mounted on a surface Plasmon resonance (SPR) nickel chip by their His tag, and hK6 molecules served as the analyte.

[3] = system: AGS cells; test: XTT proliferation assay; assay type: cell-based; settings: 100 nM, 1 μM, 10 μM, 48 hours
Experimental: (§1) The effect of an APPI variant (SEQ ID NO: 13) on proliferation of gastric cancer cells was evaluated by XTT assay. AGS, HCT-116 and SW-480 cells were plated into 96-well plates in 9600 cells/well in duplicate, and allowed to adhere for 4 hours. Each well was supplemented with 100 nM, 1 μM, or 10 μM […] (SEQ ID NO: 13) or a vehicle (50 mM Tris-HCl, 100 mM NaCl, Ph 7.3), and cells were incubated for 48 hours. Proliferation was measured by XTT following the manufacturer instructions (Biological Industries, Ill.).

[4] = system: HCT-116 cells; test: XTT proliferation assay; assay type: cell-based; settings: 100 nM, 1 μM, 10 μM, 48 hours
Experimental: as §1

[5] = system: SW-480 cells; test: XTT proliferation assay; assay type: cell-based; settings: 100 nM, 1 μM, 10 μM, 48 hours
Experimental: as §1

[6] = target: T2, mesotrypsin (Homo sapiens, UniProt P35030); test: Mesotrypsin inhibition, cleavage of Z-GPR-pNA; assay type: biochemical; set-up: made in house
T2 sequence (P35030 81-304 limits assumed): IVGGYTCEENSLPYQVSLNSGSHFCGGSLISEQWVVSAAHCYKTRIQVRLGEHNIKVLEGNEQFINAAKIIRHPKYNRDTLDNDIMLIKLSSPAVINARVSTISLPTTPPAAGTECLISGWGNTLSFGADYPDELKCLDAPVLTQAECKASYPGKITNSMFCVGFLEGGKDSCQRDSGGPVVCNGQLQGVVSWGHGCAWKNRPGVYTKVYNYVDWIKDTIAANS

[7] = target: T1, hK6; test: YSD binding of 50 nM hK6 in presence of active-site small molecule
Experimental: Next, different concentrations of the polypeptides having SEQ ID Nos: 8, 13, and 14 were tested for their ability to bind 50 nM hK6 in the presence of a small molecule which target and home the serine residue in the active pocket of hK6.

[8] = target: T2, mesotrypsin; test: Hydrolysis of APPI variants by mesotrypsin, HPLC time course; assay type: biochemical; set-up: made in house
[9] = target: T2, mesotrypsin; settings: literature (Knecht et al. 2007; Radisky et al. 2003); cited from earlier work

Which “invasive cells per field” value ([1]; 10 μM APPI (b288 prints 10M), 48 hours) does the source give for “SEQ ID NO: 13: APPI variant, EVCSEQAETGPCRALFFRWYFDVTEGKCAPFVYGGCGGNRNNFDTEEYCMAVCGSAI” here?
The value was 1.46±0.48 cells/field.

And the invasion capacity reduced ([1]; 10 μM APPI (b288 prints 10M), 48 hours, vs vehicle)?
The invasion capacity reduced was 77%.

And the transmembrane invasion ([1]; compared with vehicle)?
The transmembrane invasion was “significantly lower transmembrane invasion capacity; also recorded: inhibits cell invasion”.

What about the Kd ([2]; 25° C.) of the same substance?
Its Kd is 0.351 nM.

And the “improvement in binding to hK6” value ([2]; compared to APPI WT)?
The value was 22.5 folds.

And the “proliferation (XTT)” value [3]?
The value was “did not inhibit proliferation”.

What about the “proliferation (XTT)” value [4] of the same substance?
Its value is “did not inhibit proliferation”.

What about the “proliferation (XTT)” value [5] of the same substance?
Its value is “did not inhibit proliferation”.

What about the Ki ([6]; Example 10, read-out: Ki (mesotrypsin activity)) of the same substance?
The Ki was 5.38 nM.

What about the “binding to hK6 compared with SEQ ID NO: 8” value ([7]; 50 nM hK6, yeast display) of the same substance?
The value was “higher binding”.

What about the “binding to hK6 in presence of small molecule” value ([7]; high concentrations of small molecule targeting active-site Ser of hK6) of the same substance?
Its value is “diminished”.

For “APPIT11C/M17G/I18F/F34C: APPI variant, EVCSEQAECGPCRAGFSRWYFDVTEGKCAPFCYGGCGGNRNNFDTEEYCMAVCGSAI”, which Kcat ([8]; Table 4) is on record?
Its Kcat is 0.00521 s⁻¹.

What about the turnover time ([8]; Table 4) of the same substance?
The turnover time was 192.21 s.

What about the “Turnover time (fold)” value ([8]; proteolytic stability relative to APPI-WT) of the same substance?
The value was “around 2 fold”.

And the Ki ([6]; Table 4, read-out: Ki)?
Its Ki is 149 nM.

With “bovine pancreatic trypsin inhibitor [BPTI]” as the substance, how does the “proteolytic stability toward mesotrypsin” value [9] read?
The value was “the more stable of the two”.
